Data: publication doi:10.1101/207928

Target: glycosylated full-length human insulin receptor isoform A (human) (UniProt P06213)
Experiment: negative-stain electron microscopy

stoichiometry N: 2
Substance: glycosylated full-length human insulin receptor isoform A (from UniProt P06213-2 28-1370)
